From patent US20240116985A1 (published 2024)
Starred links: 1 amine or outer side, 2 acyl side, 3 side chain; linkers in the order of their positions; H or OH if unused. Positions of bridges follow the written chain, without caps; N, C: chain ends. Non-standard residues stand in square brackets, D forms with d. Primed or numbered codes have the meaning given here. PyrS2″ = (S)-3-amino-1-((pent-4-en-1-yloxy)carbonyl)pyrrolidine-3-carboxylic acid (stapling residue), C=CCCCOC(=O)N1CC[C@@](N[*:1])(C(=O)[*:2])C1; B5(32) = 2-amino-2-(pent-4-en-1-yl)hept-6-enoic acid (bis-4-pentenylglycine, two alkene side chains), C=CCCCC(CCCC=C)(N[*:1])C(=O)[*:2]; B5(4) = 2,2-bis(4-pentenyl)glycine = 2-amino-2-(pent-4-en-1-yl)hept-6-enoic acid (stitching residue), C=CCCCC(CCCC=C)(N[*:1])C(=O)[*:2]; PyrS2 = (S)-3-amino-1-((pent-4-en-1-yloxy)carbonyl)pyrrolidine-3-carboxylic acid, C=CCCCOC(=O)N1CC[C@@](N[*:1])(C(=O)[*:2])C1; B5(3) = 2,2-bis(4-pentenyl)glycine (stitching residue), C=CCCCC(CCCC=C)(N[*:1])C(=O)[*:2]; Phe(3-COOH) = N[C@@H](Cc1cccc(C(=O)O)c1)C(=O)O; Met(O2) = CS(=O)(=O)CC[C@H](N)C(=O)O; Bta = N[C@@H](Cc1csc2ccccc12)C(=O)O; αAllylPro = C=CC[C@@]1(C(=O)O)CCCN1; tBuAla = CC(C)(C)C[C@H](N)C(=O)O; 3Thi = N[C@@H](Cc1ccsc1)C(=O)O; PyrS2(4) = not defined here

Experiments:
Test in all cases: cell-based or functional assay
[1] = target: T1, beta-catenin in DLD1 TCF/LEF luciferase reporter cells (UniProt P35222 2-781)
T1 sequence (looked up): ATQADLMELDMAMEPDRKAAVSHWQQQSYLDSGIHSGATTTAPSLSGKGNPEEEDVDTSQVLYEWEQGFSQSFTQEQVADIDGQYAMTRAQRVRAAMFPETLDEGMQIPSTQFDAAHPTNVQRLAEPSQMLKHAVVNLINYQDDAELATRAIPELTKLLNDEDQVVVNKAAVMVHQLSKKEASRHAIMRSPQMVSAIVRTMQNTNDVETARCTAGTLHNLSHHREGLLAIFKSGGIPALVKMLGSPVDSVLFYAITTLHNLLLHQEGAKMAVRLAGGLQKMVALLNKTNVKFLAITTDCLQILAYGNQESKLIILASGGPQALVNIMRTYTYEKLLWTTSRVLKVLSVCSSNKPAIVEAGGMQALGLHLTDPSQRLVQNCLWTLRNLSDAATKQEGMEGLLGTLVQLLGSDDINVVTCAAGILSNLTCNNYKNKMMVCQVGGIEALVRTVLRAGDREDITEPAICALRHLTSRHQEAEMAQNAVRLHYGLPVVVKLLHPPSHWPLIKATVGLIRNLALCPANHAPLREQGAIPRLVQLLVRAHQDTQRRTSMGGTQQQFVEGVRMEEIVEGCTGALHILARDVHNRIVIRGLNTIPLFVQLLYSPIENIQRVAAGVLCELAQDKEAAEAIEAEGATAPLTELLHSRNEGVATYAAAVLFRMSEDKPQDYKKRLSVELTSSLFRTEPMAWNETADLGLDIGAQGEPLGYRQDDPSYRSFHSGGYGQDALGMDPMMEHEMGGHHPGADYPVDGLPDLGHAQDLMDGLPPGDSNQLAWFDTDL

[2] = target: T2, B-cat-Halo (beta-catenin HaloTag construct expressed in HEK293 cells) (UniProt P35222 1-781)
T2 sequence (looked up): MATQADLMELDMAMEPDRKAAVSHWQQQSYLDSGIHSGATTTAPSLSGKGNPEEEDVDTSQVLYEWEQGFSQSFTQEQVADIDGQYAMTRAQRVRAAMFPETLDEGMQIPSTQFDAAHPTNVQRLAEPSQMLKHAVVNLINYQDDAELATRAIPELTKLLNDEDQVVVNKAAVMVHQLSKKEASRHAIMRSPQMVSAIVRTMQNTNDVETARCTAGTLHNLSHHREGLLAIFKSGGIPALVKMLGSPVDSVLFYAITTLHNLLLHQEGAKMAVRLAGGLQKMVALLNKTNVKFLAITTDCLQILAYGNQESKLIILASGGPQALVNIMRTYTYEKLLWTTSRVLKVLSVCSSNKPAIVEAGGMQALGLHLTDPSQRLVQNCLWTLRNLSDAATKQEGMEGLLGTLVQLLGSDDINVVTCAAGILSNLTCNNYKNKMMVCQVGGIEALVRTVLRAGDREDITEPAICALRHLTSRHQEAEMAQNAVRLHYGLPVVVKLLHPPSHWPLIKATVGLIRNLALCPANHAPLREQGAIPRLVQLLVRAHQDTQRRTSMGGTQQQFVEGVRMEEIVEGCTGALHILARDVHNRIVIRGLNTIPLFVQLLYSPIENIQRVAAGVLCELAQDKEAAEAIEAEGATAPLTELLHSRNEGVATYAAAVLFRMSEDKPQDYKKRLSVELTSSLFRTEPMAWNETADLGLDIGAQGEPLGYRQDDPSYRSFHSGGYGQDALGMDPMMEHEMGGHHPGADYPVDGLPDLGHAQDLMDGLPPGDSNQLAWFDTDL

[3] = target: T3, beta-catenin in DLD1 TCF/LEF luciferase reporter cells (UniProt P35222 2-781); remark: listed apart in the source
T3 sequence (looked up): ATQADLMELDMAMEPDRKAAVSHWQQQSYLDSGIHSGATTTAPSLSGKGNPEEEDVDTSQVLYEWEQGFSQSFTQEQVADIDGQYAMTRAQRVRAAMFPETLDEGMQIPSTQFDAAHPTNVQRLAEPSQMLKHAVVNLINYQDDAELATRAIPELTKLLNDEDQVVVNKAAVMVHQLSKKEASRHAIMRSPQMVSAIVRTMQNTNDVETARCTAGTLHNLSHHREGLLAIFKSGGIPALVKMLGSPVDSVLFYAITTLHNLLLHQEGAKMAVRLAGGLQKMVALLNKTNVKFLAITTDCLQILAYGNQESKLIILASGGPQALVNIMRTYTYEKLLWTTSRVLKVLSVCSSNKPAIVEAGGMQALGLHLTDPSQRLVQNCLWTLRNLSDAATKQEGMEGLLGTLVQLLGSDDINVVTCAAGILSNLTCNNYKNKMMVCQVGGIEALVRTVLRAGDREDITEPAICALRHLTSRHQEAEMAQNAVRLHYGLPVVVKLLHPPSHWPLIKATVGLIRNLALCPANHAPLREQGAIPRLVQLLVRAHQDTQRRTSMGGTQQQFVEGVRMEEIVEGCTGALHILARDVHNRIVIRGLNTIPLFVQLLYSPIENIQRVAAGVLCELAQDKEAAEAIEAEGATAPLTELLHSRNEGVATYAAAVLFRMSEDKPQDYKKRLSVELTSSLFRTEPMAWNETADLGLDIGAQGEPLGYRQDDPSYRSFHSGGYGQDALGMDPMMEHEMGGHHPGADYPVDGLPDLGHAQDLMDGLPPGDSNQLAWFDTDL

B-cat-Halo [4] = target: T4, B-cat-Halo (UniProt P35222 1-781)
T4 sequence (looked up): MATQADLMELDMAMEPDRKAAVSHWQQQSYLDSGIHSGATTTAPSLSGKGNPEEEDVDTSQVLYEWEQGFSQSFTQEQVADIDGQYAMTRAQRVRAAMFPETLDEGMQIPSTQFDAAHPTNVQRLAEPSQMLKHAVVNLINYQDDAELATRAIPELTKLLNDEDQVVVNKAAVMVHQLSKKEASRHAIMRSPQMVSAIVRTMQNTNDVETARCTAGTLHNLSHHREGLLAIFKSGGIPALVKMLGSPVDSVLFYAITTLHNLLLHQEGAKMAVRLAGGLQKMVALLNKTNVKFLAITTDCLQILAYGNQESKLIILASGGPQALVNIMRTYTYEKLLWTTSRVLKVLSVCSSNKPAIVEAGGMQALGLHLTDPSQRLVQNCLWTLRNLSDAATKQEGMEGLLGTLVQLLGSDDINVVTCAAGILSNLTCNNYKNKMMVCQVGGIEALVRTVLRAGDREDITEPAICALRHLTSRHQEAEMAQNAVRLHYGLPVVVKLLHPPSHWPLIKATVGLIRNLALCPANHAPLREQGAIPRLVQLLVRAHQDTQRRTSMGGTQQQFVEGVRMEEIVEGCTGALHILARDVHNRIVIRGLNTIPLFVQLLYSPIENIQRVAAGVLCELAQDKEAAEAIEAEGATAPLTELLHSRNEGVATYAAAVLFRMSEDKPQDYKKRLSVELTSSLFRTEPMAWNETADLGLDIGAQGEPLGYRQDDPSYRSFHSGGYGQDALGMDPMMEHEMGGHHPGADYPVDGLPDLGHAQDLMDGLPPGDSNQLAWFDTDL

[5] = target: T5, beta-catenin in DLD1 TCF/LEF luciferase reporter cells (UniProt P35222 1-781)
T5 sequence (looked up): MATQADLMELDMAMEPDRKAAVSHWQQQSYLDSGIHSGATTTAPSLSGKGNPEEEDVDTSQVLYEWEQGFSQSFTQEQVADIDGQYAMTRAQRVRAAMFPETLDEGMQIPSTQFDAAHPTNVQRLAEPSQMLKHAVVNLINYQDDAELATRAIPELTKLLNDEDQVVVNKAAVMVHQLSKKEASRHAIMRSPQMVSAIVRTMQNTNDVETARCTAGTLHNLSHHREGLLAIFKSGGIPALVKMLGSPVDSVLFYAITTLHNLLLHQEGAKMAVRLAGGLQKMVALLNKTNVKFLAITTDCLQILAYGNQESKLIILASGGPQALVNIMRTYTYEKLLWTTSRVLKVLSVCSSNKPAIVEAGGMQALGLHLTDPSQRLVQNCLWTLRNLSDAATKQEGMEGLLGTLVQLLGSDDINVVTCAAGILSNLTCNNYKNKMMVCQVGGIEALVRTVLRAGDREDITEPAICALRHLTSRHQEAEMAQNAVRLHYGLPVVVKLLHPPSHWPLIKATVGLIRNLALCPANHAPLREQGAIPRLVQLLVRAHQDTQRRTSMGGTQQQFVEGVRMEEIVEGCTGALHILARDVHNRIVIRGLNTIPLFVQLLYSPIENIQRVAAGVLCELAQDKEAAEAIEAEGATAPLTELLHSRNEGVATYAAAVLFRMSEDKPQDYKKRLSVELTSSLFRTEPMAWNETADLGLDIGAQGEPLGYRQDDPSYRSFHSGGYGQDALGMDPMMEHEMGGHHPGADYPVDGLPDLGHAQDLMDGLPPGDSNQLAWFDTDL

B-cat-Halo [6] = target: T6, B-cat-Halo (UniProt P35222 1-781); remark: listed apart in the source
T6 sequence (looked up): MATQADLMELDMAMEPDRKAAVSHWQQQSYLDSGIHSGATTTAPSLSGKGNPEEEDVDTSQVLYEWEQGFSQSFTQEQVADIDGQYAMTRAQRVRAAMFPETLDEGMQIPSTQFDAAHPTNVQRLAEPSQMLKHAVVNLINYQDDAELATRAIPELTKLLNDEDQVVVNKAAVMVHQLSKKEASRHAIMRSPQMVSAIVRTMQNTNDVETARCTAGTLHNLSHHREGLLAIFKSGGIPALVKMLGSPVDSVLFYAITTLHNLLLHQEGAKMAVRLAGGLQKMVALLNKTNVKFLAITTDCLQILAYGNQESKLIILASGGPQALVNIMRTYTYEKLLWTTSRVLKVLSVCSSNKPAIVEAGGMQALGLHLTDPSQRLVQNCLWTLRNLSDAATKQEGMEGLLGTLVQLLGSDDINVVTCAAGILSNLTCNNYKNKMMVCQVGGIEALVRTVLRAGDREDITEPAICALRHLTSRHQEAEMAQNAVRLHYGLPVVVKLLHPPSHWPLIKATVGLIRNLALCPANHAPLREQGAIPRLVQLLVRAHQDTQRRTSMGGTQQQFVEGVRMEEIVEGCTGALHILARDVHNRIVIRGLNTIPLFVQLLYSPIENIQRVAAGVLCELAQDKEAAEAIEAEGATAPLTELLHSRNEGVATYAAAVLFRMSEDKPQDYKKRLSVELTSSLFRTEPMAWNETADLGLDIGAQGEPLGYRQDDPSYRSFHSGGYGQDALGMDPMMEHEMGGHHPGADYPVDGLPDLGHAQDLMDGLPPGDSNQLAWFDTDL

B1: I-2061 (peptide)
peptide: Ac-[αAllylPro]D[tBuAla][B5(4)]D[Phe(3-COOH)]AAFL[PyrS2(4)][3Thi][Bta][Met(O2)]-NH2
modifications: staple 1-4, 4-11; reading uncertain; also: printed as Ac-PL3-Asp-Npg-B5-Asp-3COOHF-Ala-Ala-Phe-Leu-PyrS2-3Thi-BztA-Met2O-NH2
DLD1 4% Abs IC50 [1]: 1.8 µM | NanoBRET Abs IC50 [2]: 1.9 µM

Ac-[αAllylPro]D[tBuAla][B5(3)]D[(Pfbn)GA]AAFL[PyrS2″][3Thi][Bta]Q-NH2 (staple 1-4, 4-11) [I-1632]
DLD1 4% Abs IC50 [3]: 2.6 µM | NanoBRET Abs IC50 (B-cat-Halo [4]): 6.5 µM

Ac-[αAllylPro]D[tBuAla][B5(32)]D[Phe(3-COOH)]AAFL[PyrS2][3Thi][Bta]NLLL-NH2 (staple 1-4, 4-11; also: later eluting staple isomer (HPLC peak)) [I-2276]
DLD1 4% Abs IC50 [5]: 3.9 µM | NanoBRET Abs IC50 (B-cat-Halo [6]): 4 µM
